According to paper PMC12745498, “Streptococcus pneumoniae HtrA is a dynamic and monomeric virulence factor capable of forming larger oligomeric complexes” (Protein Science : A Publication of the Protein Society, 2025):
Ends that are not written are not given here.

T1: S. pneumoniae HtrA protease domain (PD, residues 59-285) (Streptococcus pneumoniae, UniProt A0A0H2ZQD7 59-285)
T1 construct: HtrA serine protease of Streptococcus pneumoniae, protease domain alone, residues 59-285; 15N-labeled where it is the observed partner of an NMR titration; also called HtrA PD; PD WT; source: E. coli BL21(DE3), purified (Ni column, preparative sizing column)
T1 sequence: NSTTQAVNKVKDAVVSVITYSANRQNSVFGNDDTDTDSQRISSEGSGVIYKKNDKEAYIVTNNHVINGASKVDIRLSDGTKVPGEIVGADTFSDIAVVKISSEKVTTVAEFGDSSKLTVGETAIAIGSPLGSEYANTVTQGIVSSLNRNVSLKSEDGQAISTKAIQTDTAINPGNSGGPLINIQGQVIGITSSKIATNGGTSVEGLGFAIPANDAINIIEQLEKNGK

B1: S. pneumoniae HtrA S234A full ectodomain (residues 59-393) (enzyme)
chain: NSTTQAVNKVKDAVVSVITYSANRQNSVFGNDDTDTDSQRISSEGSGVIYKKNDKEAYIVTNNHVINGASKVDIRLSDGTKVPGEIVGADTFSDIAVVKISSEKVTTVAEFGDSSKLTVGETAIAIGSPLGSEYANTVTQGIVSSLNRNVSLKSEDGQAISTKAIQTDTAINPGNAGGPLINIQGQVIGITSSKIATNGGTSVEGLGFAIPANDAINIIEQLEKNGKVTRPALGIQMVNLSNVSTSDIRRLNIPSNVTSGVIVRSVQSNMPANGHLEKYDVITKVDDKEIASSTDLQSALYNHSIGDTIKITYYRNGKEETTSIKLNKSSGDLES
notes: HtrA serine protease of Streptococcus pneumoniae, full ectodomain, residues 59-393, catalytic serine changed to alanine; the mutant's own cloning is not described; also called full HtrA S234A ectodomain; catalytic mutant; source: E. coli, purified (monomer and hexamer separated by size-exclusion chromatography)
B2: S. pneumoniae HtrA PDZ domain (residues 285-393) (domain or fragment, Streptococcus pneumoniae, UniProt A0A0H2ZQD7 285-393, looked up)
chain: KVTRPALGIQMVNLSNVSTSDIRRLNIPSNVTSGVIVRSVQSNMPANGHLEKYDVITKVDDKEIASSTDLQSALYNHSIGDTIKITYYRNGKEETTSIKLNKSSGDLES
notes: HtrA serine protease of Streptococcus pneumoniae, PDZ domain alone, residues 285-393 (the methods print 285-493); cloned downstream of human SUMO1 to give the PDZ with no overhang; source: E. coli BL21(DE3), purified (Ni column, ULP1 cleavage, Ni column, preparative sizing column); not shown: 6xHis, N-terminal, cleaved; hSUMO1, N-terminal, cleaved
B3: β-casein residues 21-70 (domain or fragment, bovine, UniProt P02666 21-70, looked up)
chain: LNVPGEIVESLSSSEESITRINKKIEKFQSEEQQQTEDELQDKIHPFAQT
modifications: ends and bridges not checked
notes: bovine β-casein, residues 21-70; also called N-terminal segment (21-70); source: recombinantly produced in-house with the hSUMO1 system (as for the HtrA PDZ)

Experiments:
[1] = target: the molecule itself; test: SEC; size-exclusion chromatography of HtrA WT, HtrA S234A, β-casein and a mixture of HtrA S234A with excess β-casein
[2] = target: T1, S. pneumoniae HtrA protease domain (PD, …); test: NMR titration; 500 μM 15N-labeled PD titrated with unlabeled PDZ (0.25-4 mM); 15N-HSQC at 900 MHz, 35°C; 50 mM sodium phosphate pH 6, 50 mM NaCl; global fit of CSPs, single-site model; details: both partners purified
[3] = target: T1, S. pneumoniae HtrA protease domain (PD, …); test: NMR titration; 500 μM 15N-labeled PDZ titrated with unlabeled PD (0.5-4 mM); 15N-HSQC at 900 MHz, 35°C; 50 mM sodium phosphate pH 6, 50 mM NaCl; global fit of CSPs, single-site model; details: both partners purified
[4] = target: B2; test: NMR titration; 250 μM 15N-labeled HtrA PDZ titrated with recombinant β-casein fragments (final 400 μM); 15N-HSQC, global fit of CSPs; details: both partners purified

Binder: B1
- stoichiometry N [1]: 6

Binder: B2
- Kd [2]: 480 ± 43 µM
- Kd [3]: 1 ± 0.5 mM

Binder: B3
- Kd [4]: 215 ± 35 µM
